Source: patent US8465945B2, “Method for production and use of mite group 1 proteins” (Merck Patent GmbH, priority 1999, dated 2013)

Tests used:
[1] = tested on: IgE from mite-allergic or normal human sera; test: ELISA, binding of IgE from human sera to coated Der f 1 proteins or mite extracts, detected with FcεR1α-biotin
[2] = tested on: IgE from pooled mite-allergic human sera; test: Monoclonal Capture ELISA (Example 8B, Table 7); type: binding
Experimental: Assays were carried out as follows. A microtiter plate as described in Example 5 was coated overnight at 4° C. with 100 ng/well of anti-Der f 1 protein monoclonal antibody 6A8, denoted herein as anti-Der f 1 MAb 6A8, provided by Dr. Martin Chapman. The plate was washed in the manner described above. The following proteins were then added to wells, having been diluted in Assay Buffer in a 2-fold dilution series, from 0.75 to 50 ng/well: Heska native Derf1, P. pastoris-expressed PDerf1303b, and E. coli-expressed PDerf1303c. After incubation for 1 hour at room temperature, plates were washed as described in Example 5. Then 100 μl per well of a 1:1000 dilution in Assay Buffer of biotinylated anti-Der f 1 monoclonal antibody 4C1, also denoted anti-Der f 1 MAb 4C1, provided by Dr. Martin Chapman, was added for 1 hour at room temperature. Plates were washed, streptavidin-HRP conjugate was added, and plates were developed as described in Example 5.
B. The Der f 1 proteins described in Example 8B were reacted as described in Example 6 with a pool of serum samples collected from 16 mite-allergic human patients.

[3] = Cysteine protease activity, cleavage of quenched fluorogenic substrate; type: biochemical; conditions: for Emission (w/o E-64): 50 μM substrate, 2 hours, excitation 380 nm, emission 460 nm; for Emission (w/E-64): pre-incubated 30 minutes with E-64 1 μg/ml
Experimental: Native Der f 1 is believed to be a cysteine protease, based on homology to papain; see, for example, Chua et al, 1992, J Exp Med 167, 175-182. The Der f 1 protein secreted as a mature form by recombinant cell P. pastoris HCY215 (i.e., P. pastoris strain X33 transformed with plasmid pBC128 containing nucleic acid molecule nDerf1909b (coding strand of SEQ ID NO:28) which encodes the pro-form of Der f 1 (amino acid sequence SEQ ID NO:29)) was tested for cysteine protease activity in the following manner. Three concentrations of protein were tested for their abilities to cleave an artificial substrate in the presence or absence of a cysteine protease inhibitor. Specifically, three pairs of samples containing 0.56 μg, 1.1 μg, or 5.6 μg of P. pastoris-expressed Der f 1 protein, respectively, were incubated for 30 minutes at room temperature in 20 μl of 50 mM Tris-HCl, pH 8. One member of each pair also contained the irreversible cysteine protease inhibitor E-64 at a concentration of 1 μg/ml. After the pre-incubation, 100 μl of 50 μM quenched fluorogenic substrate z-Val-Leu-Arg-AMC (available from Enzyme Systems Products, Livermore, Calif.) was added to all six samples, and the samples were incubated for 2 hours at room temperature. Fluorescence was measured using a Perkin Elmer Luminescence Spectrometer (model #LS50B) at an excitation wavelength of 380nm and an emission wavelength of 460 nm.

B1: PDerf1303b: Recombinant Der f 1 expressed by P. pastoris HCY215 from nDerf1909b (pro-form, SEQ ID NO:29); actually secreted as mature form (protein, listed as Dermatophagoides farinae)
chain: RPASIKTFEEFKKAFNKNYATVEEEEVARKNFLESLKYVEANKGAINHLSDLSLDEFKNRYLMSAEAFEQLKTQFDLNAETSACRINSVNVPSELDLRSLRTVTPIRMQGGCGSCWAFSGVAATESAYLAYRNTSLDLSEQELVDCASQHGCHGDTIPRGIEYIQQNGVVEERSYPYVAREQRCRRPNSQHYGISNYCQIYPPDVKQIREALTQTHTAIAVIIGIKDLRAFQHYDGRTIIQHDNGYQPNYHAVNIVGYGSTQGDDYWIVRNSWDTTWGDSGYGYFQAGNNLMMIEQYPYVVIM
[1]; Assay Number 1, serum human 1916
  OD, bound IgE: 11 OD multiplied by 1000
[1]; Assay Number 1, serum human3848
  OD, bound IgE: 1192 OD multiplied by 1000
[1]; Assay Number 1, serum human 3958
  OD, bound IgE: 2244 OD multiplied by 1000
[1]; Assay Number 1, serum human 3960
  OD, bound IgE: 646 OD multiplied by 1000
[1]; Assay Number 1, serum human 3961
  OD, bound IgE: 433 OD multiplied by 1000
[1]; Assay Number 1, serum human 3987
  OD, bound IgE: 1377 OD multiplied by 1000
[1]; Assay Number 1, serum human 4289
  OD, bound IgE: 182 OD multiplied by 1000
[1]; Assay Number 1, serum human 4467
  OD, bound IgE: 694 OD multiplied by 1000
[1]; Assay Number 1, serum human 5207
  OD, bound IgE: 2153 OD multiplied by 1000
[1]; Assay Number 1, serum human pool
  OD, bound IgE: 1547 OD multiplied by 1000
[1]; Assay Number 2, serum Heska human B
  OD, bound IgE: 2 OD multiplied by 1000
[1]; Assay Number 2, serum Heska human C
  OD, bound IgE: 4 OD multiplied by 1000
[1]; Assay Number 2, serum Heska human D
  OD, bound IgE: 0 OD multiplied by 1000
[1]; Assay Number 2, serum Heska human E
  OD, bound IgE: 1 OD multiplied by 1000
[1]; Assay Number 2, serum Heska human F
  OD, bound IgE: 0 OD multiplied by 1000
[1]; Assay Number 2, serum Heska human G
  OD, bound IgE: 0 OD multiplied by 1000
[1]; Assay Number 2, serum Heska human H
  OD, bound IgE: 0 OD multiplied by 1000
[1]; Assay Number 2, serum Heska human I
  OD, bound IgE: 4 OD multiplied by 1000
[1]; Assay Number 2, serum Heska human J
  OD, bound IgE: 0 OD multiplied by 1000
[1]; Assay Number 2, serum Heska human K
  OD, bound IgE: 0 OD multiplied by 1000
[1]; Assay Number 2, serum Heska human L
  OD, bound IgE: 0 OD multiplied by 1000
[1]; Assay Number 2, serum Heska human M
  OD, bound IgE: 0 OD multiplied by 1000
[1]; Assay Number 2, serum Heska human N
  OD, bound IgE: 370 OD multiplied by 1000
[1]; Assay Number 2, serum Heska human O
  OD, bound IgE: 0 OD multiplied by 1000
[1]; Assay Number 2, serum Heska human P
  OD, bound IgE: 0 OD multiplied by 1000
[1]; Assay Number 2, serum Heska human Q
  OD, bound IgE: 0 OD multiplied by 1000
[1]; Assay Number 2, serum Heska human R
  OD, bound IgE: 0 OD multiplied by 1000
[1]; Assay Number 2, serum human 1916
  OD, bound IgE: 15 OD multiplied by 1000
[1]; Assay Number 2, serum human 3848
  OD, bound IgE: 904 OD multiplied by 1000
[1]; Assay Number 2, serum human 3958
  OD, bound IgE: 2369 OD multiplied by 1000
[1]; Assay Number 2, serum human 3960
  OD, bound IgE: 1046 OD multiplied by 1000
[1]; Assay Number 2, serum human 3961
  OD, bound IgE: 709 OD multiplied by 1000
[1]; Assay Number 2, serum human 3987
  OD, bound IgE: 2457 OD multiplied by 1000
[1]; Assay Number 2, serum human 4289
  OD, bound IgE: 160 OD multiplied by 1000
[1]; Assay Number 2, serum human 4467
  OD, bound IgE: 660 OD multiplied by 1000
[1]; Assay Number 2, serum human 5207
  OD, bound IgE: 1304 OD multiplied by 1000
[1]; Assay Number 2, serum human pool
  OD, bound IgE: 1551 OD multiplied by 1000
[1]; Table 1, 9 human samples (8 sera and pool), OD numbers greater than 100 positive
  reactivity: share of human serum samples reactive to native Der f 1 proteins that are also reactive to the recombinant protein: 100%
[1]; Table 2, 10 human serum samples
  reactivity: share of human serum samples reactive to native Der f 1 proteins that are also reactive to the recombinant protein: 100%
[1]; Table 3, sera 429, PDerf1303b preparation number A166-26, PDerf1223b preparation 1000-7
  OD, bound IgE: 104 OD multiplied by 1000
[1]; Table 3, sera 1916, PDerf1303b preparation number A166-26, PDerf1223b preparation 1000-7
  OD, bound IgE: 0 OD multiplied by 1000
[1]; Table 3, sera 3848, PDerf1303b preparation number A166-26, PDerf1223b preparation 1000-7
  OD, bound IgE: 457 OD multiplied by 1000
[1]; Table 3, sera 3958, PDerf1303b preparation number A166-26, PDerf1223b preparation 1000-7
  OD, bound IgE: 2616 OD multiplied by 1000
[1]; Table 3, sera 3960, PDerf1303b preparation number A166-26, PDerf1223b preparation 1000-7
  OD, bound IgE: 1420 OD multiplied by 1000
[1]; Table 3, sera 3961, PDerf1303b preparation number A166-26, PDerf1223b preparation 1000-7
  OD, bound IgE: 744 OD multiplied by 1000
[1]; Table 3, sera 3987, PDerf1303b preparation number A166-26, PDerf1223b preparation 1000-7
  OD, bound IgE: 2588 OD multiplied by 1000
[1]; Table 3, sera 4467, PDerf1303b preparation number A166-26, PDerf1223b preparation 1000-7
  OD, bound IgE: 780 OD multiplied by 1000
[1]; Table 3, sera 5207, PDerf1303b preparation number A166-26, PDerf1223b preparation 1000-7
  OD, bound IgE: 1887 OD multiplied by 1000
[1]; Table 3, sera human pool, PDerf1303b preparation number A166-26, PDerf1223b preparation 1000-7
  OD, bound IgE: 1226 OD multiplied by 1000
[1]; Table 6, pool of sera from 16 mite-allergic human patients, 6.2 ng protein per well
  OD, bound IgE: 53 OD
[1]; Table 6, pool of sera from 16 mite-allergic human patients, 12.5 ng protein per well
  OD, bound IgE: 178 OD
[1]; Table 6, pool of sera from 16 mite-allergic human patients, 25 ng protein per well
  OD, bound IgE: 240 OD
[1]; Table 6, pool of sera from 16 mite-allergic human patients, 50 ng protein per well
  OD, bound IgE: 293 OD
[1]; Table 6, pool of sera from 16 mite-allergic human patients, 100 ng protein per well
  OD, bound IgE: 354 OD
[1]; Table 6, pool of sera from 16 mite-allergic human patients, 200 ng protein per well
  OD, bound IgE: 484 OD
[2]; 0.39 ng protein per well
  OD, Monoclonal Capture ELISA: 434 OD
[2]; 0.78 ng protein per well
  OD, Monoclonal Capture ELISA: 871 OD
[2]; 1.55 ng protein per well
  OD, Monoclonal Capture ELISA: 1399 OD
[2]; 3.1 ng protein per well
  OD, Monoclonal Capture ELISA: 2103 OD
[2]; 6.25 ng protein per well
  OD, Monoclonal Capture ELISA: 2463 OD
[2]; 12.5 ng protein per well
  OD, Monoclonal Capture ELISA: 2388 OD
[2]; 25 ng protein per well
  OD, Monoclonal Capture ELISA: 2389 OD
[3]; 0.56 micrograms rDer f 1
  Emission (w/o E-64): 0.861
  Emission (w/E-64): 0.302
[3]; 1.1 micrograms rDer f 1
  Emission (w/o E-64): 1.693
  Emission (w/E-64): 0.765
[3]; 5.6 micrograms rDer f 1
  Emission (w/o E-64): 9.671
  Emission (w/E-64): 2.369
[3]; can be inhibited by pre-incubation with E-64
  cysteine protease activity: exhibits cysteine protease activity
